# *1 amine or outer side, *2 acyl side, *3 side chain or, on linkers, in order; H or OH if unused. Primed or numbered codes have the meaning given here. Side-chain parts run from the residue outwards. [ ]: non-standard residue; d: D form. The star is where a group is joined. PEG12 = NCCOCCOCCOCCOCCOCCOCCOCCOCCOCCOCCOCCOCCC(=O)O; γGlu = O=C(O)[C@H](CCC(=O)[*:2])N[*:1]; Stearoyl = CCCCCCCCCCCCCCCCCC(=O)*; Palmitoyl = CCCCCCCCCCCCCCCC(=O)*; αMeK = C[C@](N)(CCCCN)C(=O)O; Nle = CCCC[C@H](N)C(=O)O; PEG2″ = not defined here; Aib = CC(C)(N)C(=O)O
# T1: RXFP1 receptor (UniProt Q9HBX9 1-757, limits assumed)
# T1 sequence (looked up): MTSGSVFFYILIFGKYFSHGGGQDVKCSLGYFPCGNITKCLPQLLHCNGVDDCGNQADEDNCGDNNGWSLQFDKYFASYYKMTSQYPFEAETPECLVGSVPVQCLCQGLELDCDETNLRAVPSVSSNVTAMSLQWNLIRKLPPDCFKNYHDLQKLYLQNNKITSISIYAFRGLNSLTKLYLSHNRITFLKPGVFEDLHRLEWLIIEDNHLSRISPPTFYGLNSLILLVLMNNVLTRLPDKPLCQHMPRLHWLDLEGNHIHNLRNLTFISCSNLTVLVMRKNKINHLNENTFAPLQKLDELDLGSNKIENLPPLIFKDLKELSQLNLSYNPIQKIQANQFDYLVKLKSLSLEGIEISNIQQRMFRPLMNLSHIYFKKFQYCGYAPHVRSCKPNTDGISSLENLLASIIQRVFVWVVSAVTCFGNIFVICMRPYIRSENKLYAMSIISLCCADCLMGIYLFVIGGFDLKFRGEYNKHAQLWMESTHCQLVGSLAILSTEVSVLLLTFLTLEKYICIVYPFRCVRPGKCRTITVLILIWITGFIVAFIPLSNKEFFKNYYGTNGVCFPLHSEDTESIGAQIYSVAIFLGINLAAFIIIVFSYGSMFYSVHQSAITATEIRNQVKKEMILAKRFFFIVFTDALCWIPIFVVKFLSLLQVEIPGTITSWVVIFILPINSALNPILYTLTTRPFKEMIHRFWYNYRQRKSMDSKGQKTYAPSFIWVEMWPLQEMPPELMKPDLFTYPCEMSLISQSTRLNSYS
# Target: T1, RXFP1 receptor
# Experiment: cell-based or functional assay
Binder,"EMax, OVCAR 5 cells (cAMP) [%]","EC50 (nM), OVCAR 5 cells (cAMP) [nM]"
Ac-LEGREKVRAQI[Aib][Aib]EG[Nle]STWS[Aib]RKKK([PEG2″-PEG2″-PEG2″-γGlu-γGlu-γGlu-Stearoyl])-NH2 [peptide of SEQ ID NO: 75],88,–
Ac-LEGREKVRAK(Ac)I[Aib][Aib]EG[Nle]STWS[Aib]RKK(Ac)K([PEG12-γGlu-γGlu-γGlu-Palmitoyl])-NH2 (SMILES CCCCCCCCCCCCCCCC(=O)N[C@@H](CCC(=O)N[C@@H](CCC(=O)N[C@@H](CCC(=O)NCCOCCOCCOCCOCCOCCOCCOCCOCCOCCOCCOCCOCCC(=O)NCCCC[C@H](NC(=O)[C@H](CCCCNC(C)=O)NC(=O)[C@H](CCCCN)NC(=O)[C@H](CCCNC(=N)N)NC(=O)C(C)(C)NC(=O)[C@H](CO)NC(=O)[C@H](Cc1c[nH]c2ccccc12)NC(=O)[C@@H](NC(=O)[C@H](CO)NC(=O)[C@H](CCCC)NC(=O)CNC(=O)[C@H](CCC(=O)O)NC(=O)C(C)(C)NC(=O)C(C)(C)NC(=O)[C@@H](NC(=O)[C@H](CCCCNC(C)=O)NC(=O)[C@H](C)NC(=O)[C@H](CCCNC(=N)N)NC(=O)[C@@H](NC(=O)[C@H](CCCCN)NC(=O)[C@H](CCC(=O)O)NC(=O)[C@H](CCCNC(=N)N)NC(=O)CNC(=O)[C@H](CCC(=O)O)NC(=O)[C@H](CC(C)C)NC(C)=O)C(C)C)[C@@H](C)CC)[C@@H](C)O)C(N)=O)C(=O)O)C(=O)O)C(=O)O) [peptide of SEQ ID NO: 66],83,0.57
Ac-LEGREKVRAQI[Aib][Aib]EGQSTWS[Aib]RKKK([PEG2″-PEG2″-γGlu-γGlu-γGlu-Stearoyl])-NH2 [peptide of SEQ ID NO: 70],86,0.28
Ac-LEGREKVRLQI[Aib][Aib]EG[Nle]STWT[Aib]RKKK([PEG2″-PEG2″-PEG2″-γGlu-γGlu-γGlu-Stearoyl])-NH2 [peptide of SEQ ID NO: 77],92,2.94
Ac-LEGREKVRAQI[Aib][Aib]EGMSTWS[Aib]RKK([γGlu-γGlu-γGlu-Palmitoyl])-NH2 (SMILES CCCCCCCCCCCCCCCC(=O)N[C@@H](CCC(=O)N[C@@H](CCC(=O)N[C@@H](CCC(=O)NCCCC[C@H](NC(=O)[C@H](CCCCN)NC(=O)[C@H](CCCNC(=N)N)NC(=O)C(C)(C)NC(=O)[C@H](CO)NC(=O)[C@H](Cc1c[nH]c2ccccc12)NC(=O)[C@@H](NC(=O)[C@H](CO)NC(=O)[C@H](CCSC)NC(=O)CNC(=O)[C@H](CCC(=O)O)NC(=O)C(C)(C)NC(=O)C(C)(C)NC(=O)[C@@H](NC(=O)[C@H](CCC(N)=O)NC(=O)[C@H](C)NC(=O)[C@H](CCCNC(=N)N)NC(=O)[C@@H](NC(=O)[C@H](CCCCN)NC(=O)[C@H](CCC(=O)O)NC(=O)[C@H](CCCNC(=N)N)NC(=O)CNC(=O)[C@H](CCC(=O)O)NC(=O)[C@H](CC(C)C)NC(C)=O)C(C)C)[C@@H](C)CC)[C@@H](C)O)C(N)=O)C(=O)O)C(=O)O)C(=O)O) [peptide of SEQ ID NO: 7],87,17.6
Ac-LEGREKVRAK(Ac)I[Aib][Aib]EG[Nle]STWS[αMeK]RKK(Ac)K([PEG2″-PEG2″-PEG2″-γGlu-γGlu-γGlu-γGlu-Palmitoyl])-NH2 [peptide of SEQ ID NO: 65],93,0.12
Ac-LEGREKVRAK(Ac)I[Aib][Aib]EG[Nle]STYS[Aib]RKK(Ac)K([PEG2″-PEG2″-PEG2″-γGlu-γGlu-γGlu-Stearoyl])-NH2 [peptide of SEQ ID NO: 78],73,1.04
Ac-LEGREKVRAK(Ac)I[Aib][Aib]EG[Nle]STWS[Aib]RK(Ac)KK([PEG2″-PEG2″-γGlu-γGlu-γGlu-Stearoyl])-NH2 [peptide of SEQ ID NO: 72],93,0.17
Ac-LEGREKVRAQI[Aib][Aib]EG[Nle]STWS[Aib]RKK([γGlu-γGlu-γGlu-Palmitoyl])-NH2 (SMILES CCCCCCCCCCCCCCCC(=O)N[C@@H](CCC(=O)N[C@@H](CCC(=O)N[C@@H](CCC(=O)NCCCC[C@H](NC(=O)[C@H](CCCCN)NC(=O)[C@H](CCCNC(=N)N)NC(=O)C(C)(C)NC(=O)[C@H](CO)NC(=O)[C@H](Cc1c[nH]c2ccccc12)NC(=O)[C@@H](NC(=O)[C@H](CO)NC(=O)[C@H](CCCC)NC(=O)CNC(=O)[C@H](CCC(=O)O)NC(=O)C(C)(C)NC(=O)C(C)(C)NC(=O)[C@@H](NC(=O)[C@H](CCC(N)=O)NC(=O)[C@H](C)NC(=O)[C@H](CCCNC(=N)N)NC(=O)[C@@H](NC(=O)[C@H](CCCCN)NC(=O)[C@H](CCC(=O)O)NC(=O)[C@H](CCCNC(=N)N)NC(=O)CNC(=O)[C@H](CCC(=O)O)NC(=O)[C@H](CC(C)C)NC(C)=O)C(C)C)[C@@H](C)CC)[C@@H](C)O)C(N)=O)C(=O)O)C(=O)O)C(=O)O) [peptide of SEQ ID NO: 8],98,26.7
Ac-LEGREKVRAQI[Aib][Aib]EG[Nle]STWT[Aib]RKKK([PEG2″-PEG2″-PEG2″-γGlu-γGlu-γGlu-Stearoyl])-NH2 [peptide of SEQ ID NO: 76],89,0.8
Ac-LEGREKVRAQI[Aib][Aib]EG[Nle]STWS[Aib]RKK([PEG2″-PEG2″-PEG2″-γGlu-γGlu-γGlu-Stearoyl])-NH2 [peptide of SEQ ID NO: 74],85,0.07
Ac-LEGREKVRAQI[Aib][Aib]EG[Nle]STWS[Aib]RKK([PEG2″-PEG2″-γGlu-γGlu-γGlu-Stearoyl])-NH2 [peptide of SEQ ID NO: 67],89,0.39
Ac-LEGREKVRAQI[Aib][Aib]EGESTWS[Aib]RKKK([PEG2″-PEG2″-γGlu-γGlu-γGlu-Stearoyl])-NH2 [peptide of SEQ ID NO: 68],94,0.63
Ac-LEGREKVRAK(Ac)I[Aib][Aib]EG[Nle]STWS[Aib]RKK([PEG2″-PEG2″-γGlu-γGlu-γGlu-Stearoyl])-NH2 [peptide of SEQ ID NO: 73],90,0.12
Ac-LEGREKVRAQI[Aib][Aib]EG[Nle]STWS[Aib]RKKK([PEG2″-PEG2″-γGlu-γGlu-γGlu-Stearoyl])-NH2 [peptide of SEQ ID NO: 71],87,0.52
Ac-LEGREKVR[Aib]QI[Aib][Aib]EG[Nle]STWS[Aib]RKKK([PEG2″-PEG2″-γGlu-γGlu-γGlu-Stearoyl])-NH2 [peptide of SEQ ID NO: 69],87,0.56

# — US20190233493A1 (Sanofi, published 2019)
